# Target: HLA-A*02:01 (Homo sapiens, UniProt P04439, D140Y/D185E/D98H/E176V/E277Q/G131W/G231S/I119V/I121R/I166T/I218V/L300P/L318F/N151K/N90K/P208A/P217A/Q86G/Q94H/R138H/R169H/T345S)
# Test: MHC binding assay (UV-ligand exchange, β2m ELISA, peptide exchange yield)
# Details: binding of HLA-class I restricted peptides to HLA-A*02:01, UV-ligand exchange
# Text: Candidate peptides for T cell based therapies according to the present invention were further tested for their MHC binding capacity (affinity). The individual peptide-MHC complexes were produced by UV-ligand exchange, where a UV-sensitive peptide is cleaved upon UV-irradiation, and exchanged with the peptide of interest as analyzed. Only peptide candidates that can effectively bind and stabilize the peptide-receptive MHC molecules prevent dissociation of the MHC complexes. To determine the yield of the exchange reaction, an ELISA was performed based on the detection of the light chain (β2m) of stabilized MHC complexes. The assay was performed as generally described in Rodenko et al. (Rodenko et al., 2006).
# 96 well MAXISorp plates (NUNC) were coated over night with 2 ug/ml streptavidin in PBS at room temperature, washed 4× and blocked for 1h at 37° C. in 2% BSA containing blocking buffer. […] Peptide-MHC monomers of the UV-exchange reaction were diluted 100 fold in blocking buffer. Samples were incubated for 1 h at 37° C., washed four times, incubated with 2 ug/ml HRP conjugated anti-β2m for 1h at 37° C., washed again and detected with TMB solution that is stopped with […]. Absorption was measured at 450 nm. Candidate peptides that show a high exchange yield (preferably higher than 50%, most preferred higher than 75%) are generally preferred for a generation and production of antibodies or fragments thereof, and/or T cell receptors or fragments thereof, as they show sufficient avidity to the MHC molecules and prevent dissociation of the MHC complexes.
row,Substance,"Peptide exchange (MHC class I binding score, peptide exchange yield)"
1,8 (FTLGNVVGMYL; listed as Homo sapiens) [compound 8],“++++” (≥75% = ++++)
2,317 (SLAALVVHV; listed as Homo sapiens) [compound 317],“+++” (≥50 = +++)
3,245 (SMIDDLLGV; listed as Homo sapiens) [compound 245],“+++” (≥50 = +++)
4,126 (VLAYFLPEA; listed as Homo sapiens) [compound 126],“++++” (≥75% = ++++)
5,498 (KLWTGGLDNTV; listed as Homo sapiens) [compound 498],“+++” (≥50 = +++)
6,175 (YLFENISQL; listed as Homo sapiens) [compound 175],“+++” (≥50 = +++)
7,274 (SLLFSLFEA; listed as Homo sapiens) [compound 274],“++” (≥20% = ++)
8,73 (NIFDLQIYV; listed as Homo sapiens) [compound 73],“+++” (≥50 = +++)
9,238 (YLISFQTHI; listed as Homo sapiens) [compound 238],“+++” (≥50 = +++)
10,171 (LLLPLQILL; listed as Homo sapiens) [compound 171],“+++” (≥50 = +++)
11,131 (FVPPVTVFPSL; listed as Homo sapiens) [compound 131],“++” (≥20% = ++)
12,205 (SLYPGTETMGL; listed as Homo sapiens) [compound 205],“+++” (≥50 = +++)
13,488 (FLAEDPKVTL; listed as Homo sapiens) [compound 488],“+++” (≥50 = +++)
14,569 (KLVDRTWTL; listed as Homo sapiens) [compound 569],“+++” (≥50 = +++)
15,400 (SLLTEQDLWTV; listed as Homo sapiens) [compound 400],“++” (≥20% = ++)
16,546 (VMIAGKVAVV; listed as Homo sapiens) [compound 546],“+++” (≥50 = +++)
17,346 (LLDSKVPSV; listed as Homo sapiens) [compound 346],“+++” (≥50 = +++)
18,364 (LLQNEQFEL; listed as Homo sapiens) [compound 364],“+++” (≥50 = +++)
19,84 (VTFGEKLLGV; listed as Homo sapiens) [compound 84],“++” (≥20% = ++)
20,396 (ALLPDLPAL; listed as Homo sapiens) [compound 396],“+++” (≥50 = +++)
21,478 (YLLHEKLNL; listed as Homo sapiens) [compound 478],“+++” (≥50 = +++)

row,Substance,"Peptide exchange (MHC class I binding score, peptide exchange yield)"
1,614 (LLLPDQPPYHL; listed as Homo sapiens) [compound 614],“+++” (≥50 = +++)
2,57 (TLAELQPPVQL; listed as Homo sapiens) [compound 57],“+++” (≥50 = +++)
3,302 (ALLQEGEVYSA; listed as Homo sapiens) [compound 302],“+++” (≥50 = +++)
4,138 (YQYPRAILSV; listed as Homo sapiens) [compound 138],“+++” (≥50 = +++)
5,560 (ALWDIETGQQTTT; listed as Homo sapiens) [compound 560],“+++” (≥50 = +++)
6,318 (GLINTGVLSV; listed as Homo sapiens) [compound 318],“++” (≥20% = ++)
7,495 (FIFSEKPVFV; listed as Homo sapiens) [compound 495],“+++” (≥50 = +++)
8,605 (KLYEAVPQL; listed as Homo sapiens) [compound 605],“+++” (≥50 = +++)
9,284 (ILLSQTTGV; listed as Homo sapiens) [compound 284],“+++” (≥50 = +++)
10,185 (FLIDDKGYTL; listed as Homo sapiens) [compound 185],“++” (≥20% = ++)
11,218 (SALEELVNV; listed as Homo sapiens) [compound 218],“++” (≥20% = ++)
12,144 (YIMEPSIFNTL; listed as Homo sapiens) [compound 144],“+++” (≥50 = +++)
13,448 (NLLETKLQL; listed as Homo sapiens) [compound 448],“+++” (≥50 = +++)
14,74 (ALLDPEVLSIFV; listed as Homo sapiens) [compound 74],“+++” (≥50 = +++)
15,586 (KLKPGDLVGV; listed as Homo sapiens) [compound 586],“+++” (≥50 = +++)
16,509 (FLFDTKPLIV; listed as Homo sapiens) [compound 509],“+++” (≥50 = +++)
17,517 (LLMPIPEGLTL; listed as Homo sapiens) [compound 517],“+++” (≥50 = +++)
18,143 (LLLDITPEI; listed as Homo sapiens) [compound 143],“++++” (≥75% = ++++)
19,340 (ALLSMTFPL; listed as Homo sapiens) [compound 340],“++++” (≥75% = ++++)
20,127 (KIGDEPPKV; listed as Homo sapiens) [compound 127],“++” (≥20% = ++)
21,300 (ALLGQTFSL; listed as Homo sapiens) [compound 300],“+++” (≥50 = +++)

row,Substance,"Peptide exchange (MHC class I binding score, peptide exchange yield)"
1,521 (MLLTKLPTI; listed as Homo sapiens) [compound 521],“+++” (≥50 = +++)
2,97 (SLINGSFLV; listed as Homo sapiens) [compound 97],“+++” (≥50 = +++)
3,154 (ALDDGTPAL; listed as Homo sapiens) [compound 154],“++” (≥20% = ++)
4,210 (LLLNAVLTV; listed as Homo sapiens) [compound 210],“++” (≥20% = ++)
5,353 (YLFEMDSSL; listed as Homo sapiens) [compound 353],“++” (≥20% = ++)
6,497 (GLLEKLTAI; listed as Homo sapiens) [compound 497],“+++” (≥50 = +++)
7,30 (LILDWVPYI; listed as Homo sapiens) [compound 30],“+++” (≥50 = +++)
8,45 (SLWQDIPDV; listed as Homo sapiens) [compound 45],“+++” (≥50 = +++)
9,219 (KLSDIGITV; listed as Homo sapiens) [compound 219],“+++” (≥50 = +++)
10,385 (SLLEQGLVEA; listed as Homo sapiens) [compound 385],“++” (≥20% = ++)
11,499 (KIFDIDEAEEGV; listed as Homo sapiens) [compound 499],“++” (≥20% = ++)
12,352 (SLLELLHIYV; listed as Homo sapiens) [compound 352],“+++” (≥50 = +++)
13,169 (NLPEYLPFV; listed as Homo sapiens) [compound 169],“+++” (≥50 = +++)
14,475 (LLLNEEALAQI; listed as Homo sapiens) [compound 475],“+++” (≥50 = +++)
15,603 (FLIEPEHVNTV; listed as Homo sapiens) [compound 603],“++” (≥20% = ++)
16,55 (SLLDLETLSL; listed as Homo sapiens) [compound 55],“++++” (≥75% = ++++)
17,576 (ILLNNSGQIKL; listed as Homo sapiens) [compound 576],“++++” (≥75% = ++++)
18,510 (KLYSVVSQL; listed as Homo sapiens) [compound 510],“++” (≥20% = ++)
19,551 (KLYESLLPFA; listed as Homo sapiens) [compound 551],“+++” (≥50 = +++)

# — patent publication US11230581B2, “Peptides and combination of peptides for use in immunotherapy against ovarian cancer and other cancers” (Immatics Biotechnologies GmbH, priority 2015, dated 2022)
